Experimental data from US20240376207A1 (JIANGSU HENGRUI PHARMACEUTICALS, published 2024).

T1: human PVRIG expressed on cells (human, UniProt Q6DKI7 41-326)
T1 sequence (looked up): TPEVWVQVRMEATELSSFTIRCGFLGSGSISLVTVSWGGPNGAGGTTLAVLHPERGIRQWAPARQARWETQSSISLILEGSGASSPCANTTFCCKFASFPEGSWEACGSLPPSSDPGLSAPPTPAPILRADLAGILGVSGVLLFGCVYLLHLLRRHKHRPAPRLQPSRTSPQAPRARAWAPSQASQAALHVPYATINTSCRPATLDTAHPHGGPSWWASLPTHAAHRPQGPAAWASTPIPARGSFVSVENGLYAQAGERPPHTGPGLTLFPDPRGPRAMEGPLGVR

T2: human TIGIT recombinant protein (human, UniProt Q495A1 22-141, limits assumed)
T2 construct: construct not described; also called human TIGT recombinant protein
T2 sequence (looked up): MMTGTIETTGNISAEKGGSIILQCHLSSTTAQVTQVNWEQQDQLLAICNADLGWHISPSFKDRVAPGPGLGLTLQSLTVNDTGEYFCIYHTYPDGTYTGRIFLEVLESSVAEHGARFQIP

T3: human PVRIG antigen (AcroBiosystem, PVG-H52H4) (human, UniProt Q6DKI7 41-171, limits assumed)
T3 sequence (looked up): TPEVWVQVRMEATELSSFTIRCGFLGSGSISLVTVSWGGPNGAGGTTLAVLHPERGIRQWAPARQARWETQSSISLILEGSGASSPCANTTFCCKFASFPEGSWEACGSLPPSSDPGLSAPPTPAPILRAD

T4: human TIGIT antigen (AcroBiosystem, TIT-H52H3) (human, UniProt Q495A1 22-141)
T4 sequence (looked up): T2 sequence (looked up)

T5: his-tagged cynomolgus monkey PVRIG (cyno-PVRIG-his) recombinant protein (cynomolgus monkey)
T5 construct: expressed in HEK293, purified by Ni-NTA; also called Monkey PVRIG-his; cynomolgus monkey PVRIG recombinant protein
T5 chain: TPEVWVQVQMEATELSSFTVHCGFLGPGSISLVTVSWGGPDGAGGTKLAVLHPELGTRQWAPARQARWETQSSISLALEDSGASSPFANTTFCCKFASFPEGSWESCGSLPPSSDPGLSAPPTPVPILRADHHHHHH

B1: anti-PVRIG antibody 30 (antibody, human IgG4 S228P, F234A L235A, V domains shown)
VH: HVQLVESGGGSVQAGGSLRLSCEASGYSYSGDCMGWFRRAPGKERDEGVATIDNAGRIKYADSVKGRFTISHGNGKYILYLQMNSLKPEDTDMYYCAAGWTFGGNCSPADWGQGTQVTVSS
notes: no light chain
B2: positive antibody Tab5 (antibody, human IgG4 S228P, kappa, F234A L235A, V domains shown)
VH: EVQLVESGGGVVKPGGSLRLSCAASGFTFGTSSMNWVRQAPGKGLEWVAVISFDGTEIHYADSVKGRFTISRDNSKSTVFLQMNSLRPDDTALYYCAKGSGNIYFYSGMDVWGQGTTVTVSS
VL: DIQMTQSPSTLSASVGDRVTITCRAGQSISGWLAWFQQKPGKAPNLLIYETSTLESGVPSRFSGSGSGTEYTLTISSLQPDDFATYYCQQYYSYPLTFGQGTKVEIKR
notes: Variable regions of CPA.7.021 (WO2016134333A1) on human IgG4 (S228P/F234A/L235A/K447A) and human kappa constant regions
B3: humanized anti-PVRIG/TIGIT bispecific antibody 1708-20H5 (bispecific antibody, human IgG4 S228P, kappa)
heavy: not shown
light: DIQMTQSPSSLSASVGDRVTITCRASENIYSYLAWYQQKPGKSPKLLIYNARTLAEGVPSRFSGSGSGTDFTLTISSLQPEDFATYYCQYHSGSPLPFGGGTKVEIKRTVAAPSVFIFPPSDEQLKSGTASVVCLLNNFYPREAKVQWKVDNALQSGNSQESVTEQDSKDSTYSLSSTLTLSKADYEKHKVYACEVTHQGLSSPVTKSFNRGEC
B4: humanized anti-PVRIG/TIGIT bispecific antibody 1708-30H2 (bispecific antibody, human IgG4 S228P, kappa)
heavy: not shown
light: B3 light

What was measured:
[1] = target: T1, human PVRIG expressed on cells; assay: cell-based or functional assay
[2] = target: T1, human PVRIG expressed on cells; assay: cell-based or functional assay; remark: listed apart in the source
[3] = target: T1, human PVRIG expressed on cells; assay: FACS, cells overexpressing target
[4] = target: T1, human PVRIG expressed on cells; assay: FACS, HEK293 cells overexpressing target
Protocol: The expression plasmid carrying human or cynomolgus monkey PVRIG gene sequence was transfected into HEK293 cells, and the over-expressing stable transfection monoclonal cell strain was obtained by antibiotic screening and infinite dilution. Overexpressing cells were seeded into a 96-well plate at 2×10⁵ cells/per well. The cells were centrifuged at 300 g for 5 min, the supernatant was then removed, 100 μL of the test antibody was added, and the mixture was incubated at 4° C. for 1 h. The mixture was centrifuged, the supernatant was removed, the plate was washed 3 times with 200 μL of wash buffer (PBS+2% FBS), and then 100 μL of an anti-human IgG secondary antibody (Invitrogen, A-11013) labeled with Alexa Fluor 488 diluted at 1:500 was added. The mixture was incubated at 4° C. for 1 h. The plate was centrifuged, and the supernatant was removed. The plate was washed 3 times with 200 μL of wash buffer (PBS+2% FBS). The cells were resuspended in 100 μL of PBS and tested on a flow cytometer (BD FACS Calibur or BD FACS Canto_II).
Binding of the humanized anti-PVRIG antibodies to human or cynomolgus monkey PVRIG was detected by using a flow cytometer according to the method of Example 5.

[5] = target: T2, human TIGIT recombinant protein; assay: competition ELISA; human TIGIT, competitor human PVR
Protocol: The h-PVRIG-mIgG2a Fc protein (at a concentration of 1 μg/mL) was coated on the 96-well microplate at 100 μL per well, and incubated overnight at 4° C. The plate was washed three times with wash buffer at 250 μL per well. For each wash, the plate was shaken for 10 s to ensure adequate cleaning. A blocking solution was added at 300 μL/well, and the plate was incubated at room temperature for 1 h. The plate was washed three times with wash buffer at 250 μL per well. For each wash, the plate was shaken for 10 s to ensure adequate cleaning. 50 μL of diluted test anti-PVRIG antibody and 50 μL of his-tagged ligand PVRL2 were added to each well, and the plate was incubated at 37° C. for 1 h. The plate was washed three times with wash buffer at 250 μL per well. The HRP-labeled anti-his-tagged secondary antibody (Genscrpit) diluted at 1:2000 was added at 100 μL per well. The plate was incubated at 37° C. for 1 h. The plate was washed three times with wash buffer at 250 μL per well. TMB was added at 100 μL/well, and the plate was incubated in the dark for 15 min. 0.16 M sulfuric acid was added at 50 μL/well. OD values at 450 nm were measured using a Thermo MμtLtiSkanFc microplate reader, and the IC₅₀ values of the anti-PVRIG antibodies blocking the binding of PVRIG to PVRL2 were calculated.
Similarly to Examples 4, 5 and 6, the binding of humanized anti-PVRIG/TIGIT bispecific antibodies to human and cynomolgus monkey TIGIT and blocking of binding of human TIGIT to ligand were detected, where PVRIG protein was replaced with TIGIT and PVRL2 was replaced with PVR.

[6] = target: T3, human PVRIG antigen (AcroBiosystem, …); assay: SPR (Biacore X100), antibody captured on Protein A chip, 1:1 fit
Excerpt: (§1) The affinity of the humanized bispecific antibodies for human PVRIG, cynomolgus monkey PVRIG and human TIGIT was detected using Biacore. Humanized bispecific antibodies were each captured on a Protein A biosensor chip (GE lifesciences, 29127557) of a Biacore instrument (Biacore X100, GE), and then human PVRIG antigen (AcroBiosystem, PVG-H52H4), cynomolgus monkey PVRIG antigen (SEQ ID NO: 1), or human TIGIT antigen (AcroBiosystem, TIT-H52H3) at a series of concentration gradients each flowed over the chip surface. The reaction signals were detected in real time using a Biacore instrument (Biacore X100, GE) to obtain association and dissociation curves. The data obtained from the experiment were fitted using the (1:1) Binding model with the BiacoreX100 evaluation software 2.0 GE to obtain affinity values (see Table 31).

[7] = target: T4, human TIGIT antigen (AcroBiosystem, …); assay: as above
Excerpt: as §1

[8] = target: T5, his-tagged cynomolgus monkey PVRIG …; assay: as above
Excerpt: as §1

| Binder | NK92 killing of K562, killing activity (%), 4 nM antibody [1] [%] | NK92 killing of K562, killing activity (%), 20 nM antibody [1] [%] | NK92 killing of K562, killing activity (%), 100 nM antibody [1] [%] | PVRIG reporter gene cell activity EC50 [2] [nM] | EC50 [3] [nM] | EC50 [4] [nM] | IC50 [5] [nM] | Kd [6] [nM] | koff [6] [s⁻¹] | kon [6] [M⁻¹ s⁻¹] | Kd [7] [nM] | koff [7] [s⁻¹] | kon [7] [M⁻¹ s⁻¹] | Kd [8] [nM] | koff [8] [s⁻¹] | kon [8] [M⁻¹ s⁻¹] |
| --- | --- | --- | --- | --- | --- | --- | --- | --- | --- | --- | --- | --- | --- | --- | --- | --- |
| B1 | 10.4 | 11.9 | 13.3 | – | – | – | – | – | – | – | – | – | – | – | – | – |
| B2 | 5.9 | 7.9 | 10 | 1.38 | 3.15 | 0.16 | – | – | – | – | – | – | – | – | – | – |
| B3 | – | – | – | – | – | – | 1.02 | 0.00782 | 0.00013 | 1.67e+07 | 0.0763 | 0.00015 | 1.97e+06 | 7.05 | 0.181 | 2.56e+07 |
| B4 | – | – | – | – | – | – | 1.01 | 0.706 | 0.00912 | 1.29e+07 | 0.0512 | 0.000158 | 3.08e+06 | 31.9 | 0.581 | 1.82e+07 |
